Patent US20240392024A1 (SHANGHAI CELGEN BIO PHARMACEUTICAL, published 2024)
Where a chain is given by its changes, count along the chain named.

B1: anti-human TNFR2 mouse monoclonal antibody 27F6 (antibody, V domains shown)
VH: EVQLQQSGTVLARPGASVKMSCKTSGYTFTSYWMHWVKQRPGQGLEWIGTIYPGNSDTSYNQKFKGKAKLTAVTSASTAYMELNSLTNEDSAVFYCTRENLLLRSYFFDYWGQGTTLTVSS
VL: DIVMTQSPASLAVSLGQRATISCKASQSVDYDGDSYLNWYQQKPGQPPKLLIYAASNLPSGIPARFSGSGSGTDFTLNIHPVEEEDAATYYCQQSNEDPRTFGGGTKLEIK
B2: anti-human TNFR2 mouse monoclonal antibody 29A1 (antibody, V domains shown)
VH: QVQLQQSGAEVVRPGASVTLSCKASGYTFSDYEMHWVKQTPVHGLEWIGAIDPETGDTAYNQKFKDKARVTADKSSSTAYMELRSLTSEDSAVYYCTRDIHYYGSSLSYFDYWGQGTTLTVSS
VL: DIVMTQSQKFMSTSVGDRVSVTCKASQNVGTNVAWYQQKPGQSPKVMIYSASYRYSGAPDRFTGSGSGTDFTLTVNNVQSEDLAEYFCQQYKTYPYTFGGGTKLEIE
B3: anti-human TNFR2 mouse monoclonal antibody 7F2 (antibody, V domains shown)
VH: QVTLKESGPGILQPSQTLSLTCSFSGFSLNTFGLGVGWIRQPSGKGLEWLTHIWWNDDKYYNPALKSRLTISRDTSENLVFLKIANVDTADTATYYCARIEGLRRFDYWGQGTTLTVSS
VL: DIQMTQSPSSLSASLGGKVTITCKTSQDINKFIAWYQHKPGKGPRLLIHYTSTLQPGIPSRFSGSGSGRDYSFSISDLEPEDIATYYCLQYANLWAFGGGTKLEIK
B4: anti-human TNFR2 mouse monoclonal antibody 12E12 (antibody, V domains shown)
VH: EVQLQQSGAELVKPGASVKLSCTVSGFNIKDFYIHWVKQRPEQGLEWIGRVDPEDGNTEYAPNFQDRATMTTDTSSNTAYLQLSSLTSVDTAVYYCSTWDGFSYFDYWGLGTTLTVSS
VL: QAVVTQESALTTSPGETVTLTCRSSTGPVTTNNYANWVQEKPDHLFTGLIGGTNDRAPGVPARFSGSLIGDKTALTITGTQTEDEAVYFCALWYRNHWVFGGGTKLTVL
B5: human-mouse chimeric TNFR2 monoclonal antibody 16D2-hFc (antibody, V domains shown)
VH: EVQLQQSEPELVKPGASVKIPCKASGYTFTDYNMDWVKQSHGKSLEWIGDINPNNGVTIYNQKFKGKATLTVDKSSSTAYMELRSLTSEDTAVYYCVILEYFDYWGQGTTLTVSS
VL: DIVMTQSTSSMSVSLGDTVSITCHASQGISSNIGWLQQKPGKSFKGLIYHGTKLEDGVPSRFSGSGSGADYSLTISSLESEDFADYYCVQYAQFPRTFGGGTKLEIK
notes: Mouse V regions of clone 16D2 with human constant regions

biological target: T1, recombinant mouse TNFR2 (mTNFR2) (Sino Biological, 50128-M08H) (mouse, UniProt P25119 23-258); assay: ELISA, coated mouse TNFR2
T1 sequence (looked up): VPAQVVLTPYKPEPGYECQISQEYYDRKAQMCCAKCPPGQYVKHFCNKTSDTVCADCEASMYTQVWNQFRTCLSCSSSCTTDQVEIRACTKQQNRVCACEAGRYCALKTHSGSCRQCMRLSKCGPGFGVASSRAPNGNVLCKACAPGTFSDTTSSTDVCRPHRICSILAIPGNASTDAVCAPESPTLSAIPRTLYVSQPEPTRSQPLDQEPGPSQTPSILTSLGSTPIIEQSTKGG
Description: (§1) After TMB development, the detection was performed using microplate reader: dual wavelength 450 nm/655 nm detection, and results were calculated by OD₄₅₀-OD₆₅₅.
(§2) Using the same method as above, the TNFR2 antigens of cynomolgus monkey and mouse (Sino Biological, 90102-C021 and 50128-M08H) were coated separately. The anti-human TNFR2 mouse monoclonal antibodies to be tested were gradient diluted, then added with the anti-mouse Fab segment secondary antibody (Jackson Immuno Research, 515-035-072), and TMB development was performed. ELISA was used to detect the binding of 8 strains of mouse monoclonal antibodies to recombinant mouse TNFR2 (mTNFR2) and cynomolgus monkey TNFR2 (Cyno. TNFR2).

Binder | binding result
B1 | no binding
B2 | no binding
B3 | no binding
B4 | no binding

biological target: T2, human TNFR2 on the cell membrane (human, UniProt P20333 23-461); assay: flow cytometry on human PBMC, CD3+ T cells
T2 construct: whole, on cells; One molecule for all cell formats; also called TNFR2-CHO cells; CHO-TNFR2
T2 sequence (looked up): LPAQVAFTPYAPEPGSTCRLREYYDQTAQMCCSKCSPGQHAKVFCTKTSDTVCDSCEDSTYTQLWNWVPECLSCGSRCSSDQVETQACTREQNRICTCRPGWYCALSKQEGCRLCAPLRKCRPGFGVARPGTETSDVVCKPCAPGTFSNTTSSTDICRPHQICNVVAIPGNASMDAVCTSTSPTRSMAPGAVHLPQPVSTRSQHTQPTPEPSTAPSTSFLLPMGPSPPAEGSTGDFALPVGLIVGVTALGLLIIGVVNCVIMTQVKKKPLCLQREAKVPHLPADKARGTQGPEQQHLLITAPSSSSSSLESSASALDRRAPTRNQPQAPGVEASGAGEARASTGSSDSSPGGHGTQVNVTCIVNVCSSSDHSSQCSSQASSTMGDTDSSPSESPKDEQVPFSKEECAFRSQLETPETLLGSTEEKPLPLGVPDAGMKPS
Description: Purified anti-human TNFR2 human-mouse chimeric monoclonal antibodies were co-cultured with PBMC cells (Oricells) and stained. The binding of the antibody was analyzed by flow cytometry. The specific steps are as follows: PBMC cells (Oricells) were counted, centrifuged, resuspended, then added to a 96-deep well plate, and the supernatant was discarded. Diluted anti-TNFR2 monoclonal antibodies were added.

Binder | percent of cells in the upper right quadrant (Q1-UR, CD3+ and anti-human IgG Fc+) [%]
B5 | 9.66

biological target: T3, recombinant human TNFR2 antigen (Kangdai, batch number A100114U) (human, UniProt P20333 23-257); assay: ELISA, plate coated with recombinant human TNFR2 antigen
T3 construct: also called hTNFR2; TNFR2-FC (Shanghai Saijin Biopharmaceutical Co., Ltd., Qiangke, catalog number A100114U); not shown: Fc part of the bought TNFR2-FC
T3 sequence (looked up): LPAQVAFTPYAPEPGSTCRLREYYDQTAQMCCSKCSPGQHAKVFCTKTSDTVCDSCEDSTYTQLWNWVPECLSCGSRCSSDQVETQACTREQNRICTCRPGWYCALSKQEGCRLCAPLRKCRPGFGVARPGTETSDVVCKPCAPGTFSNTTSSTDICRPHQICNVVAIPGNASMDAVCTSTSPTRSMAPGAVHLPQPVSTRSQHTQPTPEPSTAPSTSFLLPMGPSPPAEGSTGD
Description: as §1

Binder | EC50 [nM]
B1 | 0.245
B2 | 0.171
B3 | 0.418
B4 | 0.474

biological target: T4, recombinant cynomolgus monkey TNFR2 (Cyno. TNFR2) (Sino Biological, 90102-C021) (cynomolgus monkey, UniProt A0A2K5VET2 132-366); assay: ELISA, plate coated with recombinant cynomolgus monkey TNFR2
T4 sequence: T3 sequence (looked up) with S16G, S36P, P117Q, N164H, E210A, S216G, M223V
Description: as §1, §2

Binder | EC50 [nM]
B1 | 0.506
B2 | 0.377
B3 | 0.795
B4 | 0.933

biological target: T3, recombinant human TNFR2 antigen …; assay: ELISA, coated recombinant human TNFR2
Description: as §1

Binder | EC50 [µg/mL]
B1 | 0.0366
B2 | 0.0255
B3 | 0.0623
B4 | 0.0707

biological target: T4, recombinant cynomolgus monkey TNFR2 …; assay: ELISA, coated cynomolgus TNFR2
Description: as §1, §2

Binder | EC50 [µg/mL]
B1 | 0.0756
B2 | 0.0562
B3 | 0.119
B4 | 0.139

biological target: T2, human TNFR2 on the cell membrane; assay: flow cytometry on TNFR2-CHO cells
Description: (§3) Purified anti-human TNFR2 mouse monoclonal antibodies were co-incubated with TNFR2 overexpressing CHO cell lines (obtained routinely as follows: PCDNA3.4-TNFR2 was transfected into CHO cells, and stable high expression TNFR2 cell lines were obtained through drug screening and monoclonal sorting), and then stained. The antibody binding intensity was analyzed by flow cytometry. The specific steps are as follows: TNFR2-CHO cells were counted, centrifuged, resuspended, then added to a 96-deep well plate, and the supernatant was discarded. The anti-TNFR2 antibodies to be tested were gradient diluted, added to the 96-deep well plate. […] The samples were detected using Beckman CytoFLEX.

Binder | EC50 [nM]
B1 | 1.25
B2 | 1.19
B3 | 2.44
B4 | 0.986

biological target: T2, human TNFR2 on the cell membrane; assay: flow cytometry, TNFR2-CHO cells
Description: as §3

Binder | EC50 [µg/mL]
B1 | 0.187
B2 | 0.178
B3 | 0.364
B4 | 0.147
